The numbers were not newly measured in paper PMC3463409, which cites them from elsewhere.

This data set has as its target Cys30 (UniProt position 49, FFSFFCPHCYQ). The settings on record: not stated (a thiol pKa implies the reduced form of the active-site cysteine).

As a reminder, the pKa is the negative logarithm of the acid dissociation constant. For “Thiol:disulfide interchange protein DsbA (Escherichia coli)”, the pKa was 3.5.
